Results taken from US20200071424A1 (SHIONOGI, published 2020).

T1: human [1-305]-mouse chimeric EL (human; mouse, UniProt Q9WVG5 306-500)
T1 sequence: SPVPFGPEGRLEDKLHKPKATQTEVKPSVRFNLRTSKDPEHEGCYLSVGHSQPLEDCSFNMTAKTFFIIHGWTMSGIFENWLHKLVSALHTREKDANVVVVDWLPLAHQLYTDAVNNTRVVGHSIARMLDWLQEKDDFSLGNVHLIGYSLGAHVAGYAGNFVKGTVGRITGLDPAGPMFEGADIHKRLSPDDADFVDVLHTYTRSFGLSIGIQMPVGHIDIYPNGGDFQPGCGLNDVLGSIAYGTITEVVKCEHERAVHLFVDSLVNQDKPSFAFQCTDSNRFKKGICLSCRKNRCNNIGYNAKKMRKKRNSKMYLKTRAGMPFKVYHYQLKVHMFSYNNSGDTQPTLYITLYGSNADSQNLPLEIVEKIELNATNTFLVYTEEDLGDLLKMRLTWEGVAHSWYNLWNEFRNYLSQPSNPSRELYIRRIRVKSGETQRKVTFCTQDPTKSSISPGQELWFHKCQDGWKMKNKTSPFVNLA

T2: human EL (vascular endothelial lipase) (human, UniProt Q9Y5X9 21-500)
T2 sequence: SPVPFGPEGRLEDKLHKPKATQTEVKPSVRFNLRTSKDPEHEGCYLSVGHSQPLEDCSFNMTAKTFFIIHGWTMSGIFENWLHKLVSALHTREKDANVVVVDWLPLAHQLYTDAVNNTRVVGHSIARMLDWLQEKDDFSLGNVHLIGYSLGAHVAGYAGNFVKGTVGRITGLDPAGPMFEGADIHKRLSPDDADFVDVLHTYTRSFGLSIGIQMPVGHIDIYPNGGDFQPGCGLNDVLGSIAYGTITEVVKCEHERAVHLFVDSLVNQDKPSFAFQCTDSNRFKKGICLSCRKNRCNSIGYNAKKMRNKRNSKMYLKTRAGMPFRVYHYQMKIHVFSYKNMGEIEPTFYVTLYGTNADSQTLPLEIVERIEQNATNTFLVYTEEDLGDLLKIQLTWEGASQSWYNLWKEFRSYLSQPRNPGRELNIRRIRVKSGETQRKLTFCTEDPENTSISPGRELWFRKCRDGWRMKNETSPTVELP

T3: human HL (hepatic lipase) (human, UniProt P11150 23-499)
T3 sequence (looked up): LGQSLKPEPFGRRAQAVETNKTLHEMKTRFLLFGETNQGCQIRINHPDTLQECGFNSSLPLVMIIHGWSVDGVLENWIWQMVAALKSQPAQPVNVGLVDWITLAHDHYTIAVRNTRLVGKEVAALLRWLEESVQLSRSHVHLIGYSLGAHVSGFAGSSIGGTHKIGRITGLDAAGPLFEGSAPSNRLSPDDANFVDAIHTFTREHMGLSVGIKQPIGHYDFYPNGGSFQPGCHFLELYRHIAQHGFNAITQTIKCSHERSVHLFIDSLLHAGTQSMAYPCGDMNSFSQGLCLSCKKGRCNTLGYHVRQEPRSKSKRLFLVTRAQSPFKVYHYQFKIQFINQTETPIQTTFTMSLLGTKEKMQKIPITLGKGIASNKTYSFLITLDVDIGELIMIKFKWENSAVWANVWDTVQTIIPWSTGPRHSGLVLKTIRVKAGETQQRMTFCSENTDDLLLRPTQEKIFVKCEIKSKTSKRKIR

T4: human LPL (lipoprotein lipase) (human, UniProt P06858 28-475)
T4 sequence (looked up): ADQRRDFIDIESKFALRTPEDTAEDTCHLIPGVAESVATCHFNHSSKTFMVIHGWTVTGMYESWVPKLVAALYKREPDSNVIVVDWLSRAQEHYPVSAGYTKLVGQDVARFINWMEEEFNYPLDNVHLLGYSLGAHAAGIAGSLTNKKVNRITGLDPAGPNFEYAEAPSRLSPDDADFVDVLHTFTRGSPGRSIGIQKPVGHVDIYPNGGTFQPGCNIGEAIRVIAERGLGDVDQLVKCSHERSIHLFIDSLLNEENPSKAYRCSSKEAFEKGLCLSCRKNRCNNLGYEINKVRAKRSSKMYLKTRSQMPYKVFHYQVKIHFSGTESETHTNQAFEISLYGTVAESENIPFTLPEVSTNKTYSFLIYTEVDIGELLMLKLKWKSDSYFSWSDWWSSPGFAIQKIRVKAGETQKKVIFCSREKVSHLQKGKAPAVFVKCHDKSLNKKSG

B1: h55A1-S1 (antibody, V domains shown)
VH: QVQLVQSGSELKKPGASVKVSCKASGYTFTNYGMNWVRQAPGQGLEWMGWINTYSGVPTYAGDFKGRFVFSLDTSVSTAYLQISSLKAEDTAVYYCARRGYYGRRYFDVWGKGTTVTVSS
VL: DIVLTQSPASLAVSPGQRATITCKASQSVDYDVDSYMHWYQQKPGQPPKLLIYAASNLASGVPARFSGSGSGTDFTLTINPVEANDTANYYCQQTIEDPPTFGGGTKVEIK
notes: humanized
B2: h53A11-S1 (antibody, V domains shown)
VH: QVQLVQSGAEVKKPGASVKVSCKASGYTFTDYTMHWVRQAPGQRLEWMGGINPYYGGTTYNEKFKDRVTITRDTSASTAYMELSSLRSEDTAVYYCAKGDYYGGSYNYWGQGTTVTVSS
VL: EIVMTQSLATLSVSPGERATLSCRASQDISNSLHWYQQKPGQAPRLLIKYASQSISGIPARFSGSGSGTEFTLTISSLQSEDFAVYYCQQSNSWPYTFGQGTKLEIK
B3: h16B3-S2 (antibody, V domains shown)
VH: EVQLVESGGGLVQPGGSLRLSCAASGFTFSGYTMSWVRQAPGKGLEWVSEISFARDRAFYPDTVKGRFTISRDNSKNTLYLQMNSLRAEDTAVYYCARLGGRNHDYWYFDVWGQGTTVTVSS
VL: DIVMTQSPDSLAVSLGERATINCRASESVEYYGTSLMQWYQQKPGQPPKLLIYAASNVESGVPDRFSGSGSGTDFTLTISSLQAEDVAVYYCQQSWKVPFTFGQGTKLEIK
notes: humanized
B4: h13B3-S1 (antibody, V domains shown)
VH: QVQLVQSGAEVKKPGASVKVSCKASGYTFTEYTMHWVRQAPGQGLEWMGSINPYYGGTSYNEKFKDRVTMTRDTSTSTVYMELSSLRSEDTAVYYCARYGNYVGYFDYWGQGTTVTVSS
VL: EIVLTQSPGTLSLSPGERATLSCRASSSVHYMYWYQQKPGQAPRLLIYYTSNLAPGIPDRFSGSGSGTDFTLTISRLEPEDFAVYYCQQFTSSPYTFGGGTKVEIK
B5: h23H8-S2 (antibody, V domains shown)
VH: QVQLVQSGAEVKKPGASVKVSCKASGYTFTDNTIHWVRQAPGQGLEWMGHINPYYGGTNNNEKFKDRVTMTRDTSISTAYMELSRLRSDDTAVYYCARKGIYYSSPFDYWGQGTTVTVSS
VL: DIQMTQSPSSLSASVGDRVTITCRASQDINNYLNWYQQKPGKAPKLLISYTSKLHSGVPSRFSGSGSGTDFTLTISSLQREDFATYYCQQGNTLPFTFGQGTKLEIK

How the values were obtained:
[1] = target: T1, human [1-305]-mouse chimeric EL; experiment: cell-based or functional assay
[2] = target: T1, human [1-305]-mouse chimeric EL; experiment: Biacore; EL captured by anti-C2-tag Ab; bivalent fit
Description: (§1) The binding affinities of anti-EL antibodies were measured using Biacore. […] Then, anti-EL humanized antibodies were added and the binding affinities were calculated by bivalent fitting of BIAevaluation software.

cynomolgus monkey EL [3] = target: T5, cynomolgus monkey EL (cynomolgus monkey); experiment: as above
T5 construct: Heparin extract; also called cynomolgus EL; Cynomolgus EL
Description: as §1

[4] = target: T2, human EL (vascular endothelial lipase); experiment: cell-based or functional assay
[5] = target: T3, human HL (hepatic lipase); experiment: cell-based or functional assay
[6] = target: T4, human LPL (lipoprotein lipase); experiment: cell-based or functional assay
cynomolgus monkey EL [7] = target: T5, cynomolgus monkey EL; experiment: cell-based or functional assay

Neutralizing activity IC50 [1] [nM] | Kd [2] [nM] | koff [2] [s⁻¹] | kon [2] [M⁻¹ s⁻¹] | Kd (cynomolgus monkey EL [3]) [nM] | koff (cynomolgus monkey EL [3]) [s⁻¹] | kon (cynomolgus monkey EL [3]) [M⁻¹ s⁻¹] | Neutralizing activity IC50 [4] [nM] | Neutralizing activity IC50 [5] [nM] | Neutralizing activity IC50 [6] [nM] | Neutralizing activity IC50 (cynomolgus monkey EL [7]) [nM] | Binder
2.2 | 31 | 0.00086 | 27000 | 0.59 | 0.00026 | 440000 | 3.9 | > 1800 | > 1800 | 1.6 | B1
2.1 |  |  |  |  |  |  | 9.7 | > 400 | > 400 |  | B2
5.3 | 9.3 | 0.00022 | 24000 | 2 | 0.0001 | 51000 | 4.6 | > 400 | > 400 | 1.9 | B3
3 |  |  |  |  |  |  | 2.3 | > 400 | > 400 |  | B4
1.7 |  |  |  |  |  |  | 4.5 | > 400 | > 400 |  | B5
